Data: article PMC2978286 (Journal of cardiovascular pharmacology, 2010)

Molecular target: β2AR-YFP (UniProt P07550 1-413)
Experiment: FRET or BRET

BRET ratio (basal): 0.23
BRET ratio (with ISO and SDF-1): 0.42
B1: CXCR4-RLuc (receptor, UniProt P61073 1-352, looked up)
chain: MEGISIYTSDNYTEEMGSGDYDSMKEPCFREENANFNKIFLPTIYSIIFLTGIVGNGLVILVMGYQKKLRSMTDKYRLHLSVADLLFVITLPFWAVDAVANWYFGNFLCKAVHVIYTVNLYSSVLILAFISLDRYLAIVHATNSQRPRKLLAEKVVYVGVWIPALLLTIPDFIFANVSEADDRYICDRFYPNDLWVVVFQFQHIMVGLILPGIVILSCYCIIISKLSHSKGHQKRKALKTTVILILAFFACWLPYYIGISIDSFILLEIIKQGCEFENTVHKWISITEALAFFHCCLNPILYAFLGAKFKTSAQHALTSVSRGSSLKILSKGKRGGHSSVSTESESSSFHSS
